Results taken from paper PMC4551932, “Different motif requirements for the localization zipcode element of β-actin mRNA binding by HuD and ZBP1”.
Positions count from the first letter of the chain named.

What was measured:
HuD (GST-HuD) [1] = target: T1, HuD (GST-HuD) (Rattus norvegicus (rat), UniProt O09032 1-385); assay: EMSA; REMSA: 50 mM Tris-HCl pH 7.0, 150 mM NaCl, 5 mM MgCl2, 0.2 mM DTT, 0.25 mg/ml tRNA, 0.25 mg/ml BSA, room temperature 20 min; 20 fmol RNA and 3 pmol protein in 20 ul; details: protein: recombinant, tags: GST N-terminal (pGEX-2T), label: biotin at both ends
T1 sequence (O09032 whole entry): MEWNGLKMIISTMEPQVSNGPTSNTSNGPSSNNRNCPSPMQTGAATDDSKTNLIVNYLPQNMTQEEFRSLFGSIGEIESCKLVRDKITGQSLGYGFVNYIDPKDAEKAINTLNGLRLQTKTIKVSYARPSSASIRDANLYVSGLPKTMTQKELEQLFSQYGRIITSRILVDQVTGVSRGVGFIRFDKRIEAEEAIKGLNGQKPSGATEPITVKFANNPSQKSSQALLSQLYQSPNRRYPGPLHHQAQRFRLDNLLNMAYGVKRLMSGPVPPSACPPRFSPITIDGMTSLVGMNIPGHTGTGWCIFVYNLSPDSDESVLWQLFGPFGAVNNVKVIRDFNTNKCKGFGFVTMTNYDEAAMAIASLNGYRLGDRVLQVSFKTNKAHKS

ZBP1 (His-ZBP1) [2] = target: T2, ZBP1 (His-ZBP1) (Rattus norvegicus (rat), UniProt Q8CGX0 1-577); assay: EMSA; apparent Kd; REMSA: 50 mM Tris-HCl pH 7.0, 150 mM NaCl, 5 mM MgCl2, 0.2 mM DTT, 0.25 mg/ml tRNA, 0.25 mg/ml BSA, room temperature 20 min; 20 fmol RNA and 3 pmol protein in 20 ul; details: protein: recombinant, tags: 6xHis (replaces GST in pGEX), label: biotin at both ends
T2 sequence (Q8CGX0 whole entry): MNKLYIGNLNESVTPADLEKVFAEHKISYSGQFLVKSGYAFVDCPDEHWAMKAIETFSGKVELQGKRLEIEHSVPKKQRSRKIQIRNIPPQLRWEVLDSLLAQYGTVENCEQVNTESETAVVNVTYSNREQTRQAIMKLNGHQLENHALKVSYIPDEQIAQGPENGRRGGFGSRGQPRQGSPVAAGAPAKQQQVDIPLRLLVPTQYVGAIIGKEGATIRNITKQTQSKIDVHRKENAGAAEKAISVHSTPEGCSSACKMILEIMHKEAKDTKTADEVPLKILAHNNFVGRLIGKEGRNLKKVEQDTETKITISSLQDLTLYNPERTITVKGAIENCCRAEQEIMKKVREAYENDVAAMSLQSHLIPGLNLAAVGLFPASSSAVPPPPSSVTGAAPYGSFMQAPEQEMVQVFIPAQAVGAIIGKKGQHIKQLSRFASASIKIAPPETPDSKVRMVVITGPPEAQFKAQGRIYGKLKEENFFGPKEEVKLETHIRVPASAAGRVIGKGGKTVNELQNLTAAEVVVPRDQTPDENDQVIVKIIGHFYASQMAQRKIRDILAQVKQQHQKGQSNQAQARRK

HuD (GST-HuD) [3] = target: T1, HuD (GST-HuD); assay: competition EMSA; HuD displaces ZBP1 (4 pmol) from zipcode RNA; REMSA: 50 mM Tris-HCl pH 7.0, 150 mM NaCl, 5 mM MgCl2, 0.2 mM DTT, 0.25 mg/ml tRNA, 0.25 mg/ml BSA, room temperature 20 min; 20 fmol RNA and 3 pmol protein in 20 ul; details: protein: recombinant; tags: GST N-terminal (pGEX-2T); label: biotin at both ends; stem-loop, 16-nt terminal loop (predicted)
HuD (GST-HuD) [4] = target: T1, HuD (GST-HuD); assay: EMSA; no difference from wild type; REMSA: 50 mM Tris-HCl pH 7.0, 150 mM NaCl, 5 mM MgCl2, 0.2 mM DTT, 0.25 mg/ml tRNA, 0.25 mg/ml BSA, room temperature 20 min; 20 fmol RNA and 3 pmol protein in 20 ul; details: protein: recombinant; tags: GST N-terminal (pGEX-2T); label: biotin at both ends; disrupted structure (predicted)
ZBP1 (His-ZBP1) [5] = target: T2, ZBP1 (His-ZBP1); assay: EMSA; REMSA: 50 mM Tris-HCl pH 7.0, 150 mM NaCl, 5 mM MgCl2, 0.2 mM DTT, 0.25 mg/ml tRNA, 0.25 mg/ml BSA, room temperature 20 min; 20 fmol RNA and 3 pmol protein in 20 ul; details: protein: recombinant, tags: 6xHis (replaces GST in pGEX), label: biotin at both ends
[6] = stem-loop, 10-nt terminal loop (predicted)

B1: chicken zipcode (structured_RNA)
RNA: ACCGGACUGUUACCAACACCCACACCCCUGUGAUGAAACAAAACCCAUAAAUGC
binding result (HuD (GST-HuD) [1]): no binding | Kd (ZBP1 (His-ZBP1) [2]): 78.8 nM

B2: WT zipcode (rat, 54 nt) (structured_RNA)
RNA: CGGACUGUUACUGAGCUGCGUUUUACACCCUUUCUUUGACAAAACCUAACUUGC
IC50 (HuD (GST-HuD) [3]): 171 nM | Kd (ZBP1 (His-ZBP1) [2]; stem-loop, 16-nt terminal loop (predicted)): 28.1 nM

B3: AAMTCG zipcode (structure-disrupted mutant) (structured_RNA)
RNA: B2 RNA with A10C, A14G
modifications: structure disrupted; ACACCC and U-rich motifs intact
binding result (HuD (GST-HuD) [4]): binds | Kd (ZBP1 (His-ZBP1) [2]; disrupted structure (predicted)): 315 nM

B4: delta-ACACCC zipcode (structured_RNA)
RNA: CGGACUGUUACUGAGCUGCGUUUUUUUCUUUGACAAAACCUAACUUGC
modifications: ACACCC deleted
binding result (HuD (GST-HuD) [1]; [6]): binds | binding result (ZBP1 (His-ZBP1) [5]; [6]): binds

B5: delta(ACACCC/U-rich) zipcode (structured_RNA)
RNA: CGGACUGUUACUGAGCUGCGGACAAAACCUAACUUGC
modifications: ACACCC and UUUCUUU deleted
binding result (HuD (GST-HuD) [1]; altered structure (predicted)): no binding | binding result (ZBP1 (His-ZBP1) [5]; altered structure (predicted)): no binding
